The results in this text go back to patent publication US20030124117A1.

Where two headings read alike, the source gives them in different places.

In assay [1] the target is soluble tissue factor composed of the extracellular domain residues 1-219 of hTF (human) (UniProt P13726). The experiment in a line: TF binding assay (ELISA on coated human soluble TF), ratio to chimeric F(ab) standard.
In assay [2] the target is truncated transmembrane tissue factor comprising residues 1-243, relipidated (human) (UniProt P13726). Description: cell-based or functional assay.
For assay [3], the target named is relipidated human tissue factor (Innovin) (human) (UniProt P13726). Description: cell-based or functional assay.
Assay [4] has as its target truncated transmembrane tissue factor comprising residues 1-243, relipidated (human) (UniProt P13726). Description: cell-based or functional assay. This is another data set of the same source.
Assay [5] has as its target tissue factor on human J82 cells (human) (UniProt P13726). Description: cell-based or functional assay.

truncated transmembrane tissue factor comprising residues 1-243, relipidated (human), sequence (P13726 33-275): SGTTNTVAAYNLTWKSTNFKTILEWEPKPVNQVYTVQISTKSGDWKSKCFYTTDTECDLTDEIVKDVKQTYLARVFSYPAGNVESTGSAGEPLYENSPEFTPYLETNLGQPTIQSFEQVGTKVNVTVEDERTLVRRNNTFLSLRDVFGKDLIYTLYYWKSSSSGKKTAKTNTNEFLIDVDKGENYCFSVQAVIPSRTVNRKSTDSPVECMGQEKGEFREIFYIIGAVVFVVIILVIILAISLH
soluble tissue factor composed of the extracellular domain residues 1-219 of hTF (human), sequence (P13726 33-251): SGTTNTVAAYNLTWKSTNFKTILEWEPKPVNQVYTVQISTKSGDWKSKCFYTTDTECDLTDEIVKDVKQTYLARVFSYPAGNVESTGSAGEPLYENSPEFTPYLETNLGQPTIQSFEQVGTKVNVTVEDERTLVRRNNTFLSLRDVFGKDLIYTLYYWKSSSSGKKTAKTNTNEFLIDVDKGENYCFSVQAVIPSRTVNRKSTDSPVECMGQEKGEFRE
relipidated human tissue factor (Innovin) (human), sequence (P13726 33-295 limits assumed): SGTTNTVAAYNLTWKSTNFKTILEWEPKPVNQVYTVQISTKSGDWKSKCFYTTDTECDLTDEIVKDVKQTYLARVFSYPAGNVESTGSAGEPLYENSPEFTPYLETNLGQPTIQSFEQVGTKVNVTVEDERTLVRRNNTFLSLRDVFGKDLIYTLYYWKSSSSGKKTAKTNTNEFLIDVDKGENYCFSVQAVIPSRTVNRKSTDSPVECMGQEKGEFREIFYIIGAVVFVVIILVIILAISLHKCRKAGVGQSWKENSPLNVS
tissue factor on human J82 cells (human), sequence (P13726 33-295): as the sequence (P13726 33-295 limits assumed) above

“chimeric D3 F(ab) with CDR-H2 Asp H65 changed to Gly (Fab)”: the fold reduction in binding against chimeric D3 F(ab) in assay [1] is 14.2 fold.

Take “chimeric D3 F(ab) with CDR-H3 Thr96-Ala97-Ala98 changed to TF8 Asn96-Ser97-Tyr98 (Fab)”: the fold reduction in binding against chimeric D3 F(ab) in assay [1] came out at 20.3 fold.

HTF1 antibody came in with a concentration inhibiting the rate of FX activation in human plasma by 50% in assay [2] of 150 µg/mL.

B1: murine anti-TF antibody 5G6 (antibody, V domains shown)
VH: EVLLQQSGPELVKPGASVKIPCKASGYTFTEYNMDWVKQSHGKSLEWIGDINPNNGNTIYNQKFKGKATLTVDKSSTTAYLELRSLTSEDTAVYFCARDHDYYFDFWGQGTTLTVSS
VL: DIQMTQTPASQSASLGESVTITCLASQTIDTWLAWYQQKPGKSPQLLIYAATSLADGVPSRFSGSGSGTKFSFKISSLQAEDFVSYYCQQPYSSPYTFGGGTKLELKR
modifications: murine constant regions
B1 registered an antibody concentration prolonging the clotting time (PT) by 1.5-fold in assay [3] of 27 µg/mL. For the same molecule, the concentration inhibiting the rate of FX activation in human plasma by 50% in assay [4] worked out at 15.5 µg/mL. For the same molecule, in assay [5], the IC50 of FPA generation, human ex-vivo blood flow system with J82 cells was determined as 50 µg/mL.
